Here are results for 40 sequences from the nanobody polyreactivity screen of Harvey et al. (2022).

This series is described as follows: yeast display, Sf9 membrane polyspecificity reagent, FACS + sequencing; frameworks hold sequencing errors. Summed up: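 Sorting gates, low and high (top ~1%), were placed on anti-HA fluorescence to track expression and on streptavidin fluorescence to track reagent binding. A clone's polyreactivity label is taken from the gate it came out of. The reagent was 10% biotinylated, detergent-solubilized Sf9 membrane, applied for 1 hour at 4 °C to galactose-induced yeast display cells.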
Turning to “QVQLVESGGGLVQAGGSLRLSCAASGRTFRYYAMGWYRQAPGKERELVASISRRGGSTHYADSVKVRFTISRDNAKNTVYLQMNSLKPEDTAVYYCAAYGYYTKVTKYDYWGQGTQVTVSS”, the “polyreactivity (PSR sort gate)” value is given as “high polyreactivity”.

On to “QVQLVESGGGLVQAGGSLRLSCAASGRTFRYYTMGWYRQAPGKERELVAAISWSSGSTYYADSVKGRFTISRDNAKNTVYLQMNSLKPEDTAVYYCAASRVRREYVGQDVGFVGYDSWGQGTQVTVSS”, for which the “polyreactivity (PSR sort gate)” value is recorded as “high polyreactivity”.

As for “QVQLVESGGGLVQAGGSLRLSCAASGRTFRYYTMGWYRQAPGTERELVAAITGGSRTNYADSVKGRFTISRDNAKNTVYLQMNSLKPEDTAVYYCAARRSYLLRYDYWGQGTQVTVSS”, the “polyreactivity (PSR sort gate)” value is “high polyreactivity”.

“QVQLVESGGGLVQAGGSLRLSCAASGRTFSANAMGWYRLAPGKERELVATISSGGRTNYADSVKGRFTISRDNAKNTVYLQMNSLKPEDTAVYYCAKRGPYNRWYGRYDYWGQGTQVTVSS”: the “polyreactivity (PSR sort gate)” value is “low polyreactivity”.

Take “QVQLVESGGGLVQAGGSLRLSCAASGRTFSANTMGWYRQAPGKERELVAAISKSGGSTYYADSVKGRFTISRDNAKNTVYLQMNSLKPEDTAVYYCAAARNVYRGRVYWGRYDYWGQGTQVTVSS”: the “polyreactivity (PSR sort gate)” value is given as “high polyreactivity”.

With “QVQLVESGGGLVQAGGSLRLSCAASGRTFSAYAMGWYRQAPGKERELVATISRSGGRTYYADSVKGRFTISRDNAKNTVYLQMNSLKPEDTAVYYCNARILRDNQGTYDYWGQGTQVTVSS”, the “polyreactivity (PSR sort gate)” value is “high polyreactivity”.

As to “QVQLVESGGGLVQAGGSLRLSCAASGRTFSDYAMGWYRQAPGKERELVAAITSSGGSTYYADSVKGRFTISRDNAKNTVYLQMNSLKPEDTAVYYCAKVWYGDRNIDRYDYWGQGTQVTVSS”, the “polyreactivity (PSR sort gate)” value is “high polyreactivity”.

Consider “QVQLVESGGGLVQAGGSLRLSCAASGRTFSGNAMGWYIQAPRKDRELVAAISSGGSTNYADSVKGRFTISRDNAKNTVYLQMNSLEPEDTAVYYCAADEWRFPSYAYYYWGQGTQVTVSS”, for which the “polyreactivity (PSR sort gate)” value was “low polyreactivity”.

On to “QVQLVESGGGLVQAGGSLRLSCAASGRTFSGNAMGWYRQAPGKEREMVAAITGRGGTTYYADSVKGRFTISRDNAKKTVFLQMNSLKPEDTAVYYCAADTKLSYQWFDYWGQGTQVTVSS”, for which the “polyreactivity (PSR sort gate)” value is given as “high polyreactivity”.

Take “QVQLVESGGGLVQAGGSLRLSCAASGRTFSGYAMGWYRQAPGKEREFVAAISRSGGSTYYADSVKGRFTISRDNAKNTVYLQMNSLKPEDIAVYYCAAQIWYSKRLAYKAYDYWGQGTQVTVSS”: the “polyreactivity (PSR sort gate)” value is on record as “high polyreactivity”.

As for “QVQLVESGGGLVQAGGSLRLSCAASGRTFSGYAMGWYRQAPGKERELVAAITSSGSSTYYADSVKGRFTISRDNAKNTVYLQMNSQKPEDTSVYYCAATPQAHSERYYYQRKYDYWGQGTQVTVSS”, the “polyreactivity (PSR sort gate)” value was “low polyreactivity”.

In the case of “QVQLVESGGGLVQAGGSLRLSCAASGRTFSHYAMGWYRQAPGKERELVAAITWSGGRTYYADSVKGRFTISRDNAKNTVYLQMNSLKPEDTAVYYCAAGKYWPGNYWGQGTQVTVSS”, the “polyreactivity (PSR sort gate)” value is reported as “high polyreactivity”.

With “QVQLVESGGGLVQAGGSLRLSCAASGRTFSIYAKGWYRQAPGKERELVAAISNGGRTKYADSVKGRFTISRDNAKNTVYLQMNSLKPEDTAVYYCAASSYTHKRYPSPYDYWGQGTQVTVSS”, the “polyreactivity (PSR sort gate)” value was “high polyreactivity”.

Consider “QVQLVESGGGLVQAGGSLRLSCAASGRTFSKNAMGWYRQAPGKERELVAAISWSGGRTYYADSVKGRFTISRDNAKNTVYLQMNSLKPEDTAVYYCNAYYPGNGPRSTSTRYEYWGQGTQVTVSS”, for which the “polyreactivity (PSR sort gate)” value is reported as “high polyreactivity”.

For “QVQLVESGGGLVQAGGSLRLSCAASGRTFSKYAMGWYRQAPGKERELVAAISKRGGSTSYADSVKGRFTISRDNAKNTVYLQMNSLKPEDTAVYYCAADGNRNYLYWPYGYWGQGTQVTVSS”, the “polyreactivity (PSR sort gate)” value was “high polyreactivity”.

As to “QVQLVESGGGLVQAGGSLRLSCAASGRTFSKYTMGWYRQATGKERELVAAIDRSGGSTYYADSVKGRFTISRDNAKNTVYLQMNSLKPEDTAVYYCAAVYYLVPGNYWGHGTQVTVSS”, the “polyreactivity (PSR sort gate)” value is on record as “high polyreactivity”.

Take “QVQLVESGGGLVQAGGSLRLSCAASGRTFSNYAMGWYRQAPGKEREFVAGIRYNGGSTYYADSVKGRFTISRDNAKNTVYLQMNSLKPEDTAVYYCAAERWFYRSKFDYWGQGTQVTVSS”: the “polyreactivity (PSR sort gate)” value is “high polyreactivity”.

As to “QVQLVESGGGLVQAGGSLRLSCAASGRTFSNYMGWYRQAPGKERELVAAISWRGGTTYYADSVKGRFTISRDNAKNTVYLQMNSLKPEDTAVYYCNADVVRYRHWHRGDYWGQGTQVTVSS”, the “polyreactivity (PSR sort gate)” value is given as “low polyreactivity”.

For “QVQLVESGGGLVQAGGSLRLSCAASGRTFSPNAMGWYRQAPGKERELVAAITRSDGRTYYADSVKGRFTISRDNAKNTVYLQMNSLKPEDTAVYYCAVDGYYPPAWYEYDYWGQGTQVTVSS”, the “polyreactivity (PSR sort gate)” value is on record as “high polyreactivity”.

In the case of “QVQLVESGGGLVQAGGSLRLSCAASGRTFSPYAMGWYRQAPGKERELVAAITSRGASTYYADSVKGRFTISRDNAKNTVYLQMNSLKPEDTAVYYCNSGRTYRRLGDYWGQGTQVTVSS”, the “polyreactivity (PSR sort gate)” value is “high polyreactivity”.

“QVQLVESGGGLVQAGGSLRLSCAASGRTFSQYAMGWYRQAPGKERELVAAITSAGSTYYADSVKGRFTISRDNAKNTVYLQMKSLKPEDTAVYYCNARGPSRYTGYSSYYWGQGTQVTVSS”: the “polyreactivity (PSR sort gate)” value is “high polyreactivity”.

With “QVQLVESGGGLVQAGGSLRLSCAASGRTFSQYAMGWYRQPPGKERELVASISWSGGSTYYADSVKGRFTISRDNAKNTVYLQMNSLKPEDTAVYYCAAVGKGSARSSYPVLYDYWGQGTQVTVSS”, the “polyreactivity (PSR sort gate)” value is on record as “low polyreactivity”.

In the case of “QVQLVESGGGLVQAGGSLRLSCAASGRTFSRNAMGWYRQAPGKERELVAAISWSGARTYYADSVKGRFTISRDNAKNTVYLQMNSLKPEDTAVYYCAARVPSWKYDYWGQGTQVTVSS”, the “polyreactivity (PSR sort gate)” value is “high polyreactivity”.

Turning to “QVQLVESGGGLVQAGGSLRLSCAASGRTFSRYAMGWYRQAPGKERELVAAITWSGGDTYYADSVKGRFTISRDNAKNTVYLQMNSLKPEDTAVYYCAAEWGTVGYIRYYAIWSEYDYWGQGTQVTVSS”, the “polyreactivity (PSR sort gate)” value was “low polyreactivity”.

Consider “QVQLVESGGGLVQAGGSLRLSCAASGRTFSRYAMGWYRQAPGKERELVATISSSGGTTYYADSVKGRFTISRDNAKNTVYLQLNSLKPEDTAVSYCNSEYKIRTHASGFDYWGQGTQVTVSS”, for which the “polyreactivity (PSR sort gate)” value is given as “low polyreactivity”.

For “QVQLVESGGGLVQAGGSLRLSCAASGRTFSRYTMGWYRQAPGKEREFVAAISVNGGTTHYADSVKGRFTISRDNAKNTVYLQMNSLKPEDTAVYYCAARNYLARRYGYWGQGTQVTVSS”, the “polyreactivity (PSR sort gate)” value is “high polyreactivity”.

On to “QVQLVESGGGLVQAGGSLRLSCAASGRTFSSNAMGWYRQAPGKERELVASISFRGGRTYYADSVKGRFTISRDNAKNTVYLQMYSLKPEDTAVYYCVSGTKRTGYGYWGQGTQVTVSS”, for which the “polyreactivity (PSR sort gate)” value is “high polyreactivity”.

Consider “QVQLVESGGGLVQAGGSLRLSCAASGRTFSSYAKGWYRQAPGKERELVAAITSGGSTYYADSVKGRFTISRDNAKNTVYLQMNSLKPDDTAVYYCAAEQHGYYWHSWNRYIFYYWGQGTQVTVSS”, for which the “polyreactivity (PSR sort gate)” value is on record as “high polyreactivity”.

As to “QVQLVESGGGLVQAGGSLRLSCAASGRTFSSYAMGWYRQAPGKEREFVAAISRSGASTRYADSVKGRFTISRDNAKNTVYLQMNSLKPEDTAVYYCAAVWPDVRGYDYWGQGTQVTVSS”, the “polyreactivity (PSR sort gate)” value is reported as “high polyreactivity”.

For the sequence “QVQLVESGGGLVQAGGSLRLSCAASGRTFSSYAMGWYRQAPGKERELVAAIDSGGNTYADSVKGRFTISRDNAKNTVYLQMNSLKPEDTAVYYCAVDGGEFSSYGYWGQGTQVTVSS”, the “polyreactivity (PSR sort gate)” value is “low polyreactivity”.

Turning to “QVQLVESGGGLVQAGGSLRLSCAASGRTFSSYAMGWYRQAPGKERELVAAINWSGASTYYADSVKGRFTISRDNAKNTVYLQMNSLKPEDTAVYYCAKSLYVGKYWQIRSSVDYWGQGTQVTVSS”, the “polyreactivity (PSR sort gate)” value was “low polyreactivity”.

As for “QVQLVESGGGLVQAGGSLRLSCAASGRTFSTNAMGWYRQAPGKERELVAAITASGGSTYYADSVKGRFTISRDNAKNTVYLQMNSLKPEDTAVYYCAKRYRAYHYGWWYDYWGQGTQVTVSS”, the “polyreactivity (PSR sort gate)” value is “high polyreactivity”.

As to “QVQLVESGGGLVQAGGSLRLSCAASGRTFSTYAMGWYRQAPGKERELVAAISTSGSRTYYADSVKGRFTISRDNAKNTVYFQMNSLKPEDTAVYYCAATPLYYRYYVWQYDYWGQGTQVTVSS”, the “polyreactivity (PSR sort gate)” value was “high polyreactivity”.

As to “QVQLVESGGGLVQAGGSLRLSCAASGRTFSTYAMGWYRQAPGKERELVAAITTSGGNTYYADSVKGRFTISRDNAKNTVYLQMNSLKPEDTAVYYCNAKQQPYGGTDYDYWGQGTQVTVSS”, the “polyreactivity (PSR sort gate)” value was “low polyreactivity”.

Take “QVQLVESGGGLVQAGGSLRLSCAASGRTFSVNAMGWYRPAPGKERELVAAISWDGGSTYYADSVKGRFTISRDNAKNTVYLQMNSLKPEDTAVYYCNKDLYYAYDYWGQGTQVTVSS”: the “polyreactivity (PSR sort gate)” value is on record as “low polyreactivity”.

With “QVQLVESGGGLVQAGGSLRLSCAASGRTFSVNVMGWYRQAPGKERELVAAISWSGGNTYYADSVKGRFTISRDNAKNTVYLQMNSLKPEDTAVYYCNTDFADSNYDSSYGYWGQGTQVTVSS”, the “polyreactivity (PSR sort gate)” value is on record as “low polyreactivity”.

For “QVQLVESGGGLVQAGGSLRLSCAASGRTFSVYAMGWYRQAPGKERELVAAISGRGGRTYYADSVKGRFTISRDNAKNTVYLQMNSLKPEDTAVYYCTADVGVYHDDYWGQGTQVTVSS”, the “polyreactivity (PSR sort gate)” value is recorded as “high polyreactivity”.

Turning to “QVQLVESGGGLVQAGGSLRLSCAASGRTFSVYAMGWYRQAPGKESELVAGITGNGGSTYYADSVKGRFTISRDNAKNTVYLQMNSLKPEDTAVYYCATAYWDIITRGEYGYWGQGTQVTVSS”, the “polyreactivity (PSR sort gate)” value is given as “low polyreactivity”.

As for “QVQLVESGGGLVQAGGSLRLSCAASGRTFSVYVMGWYRQAPGKERELVAAISSSGGRTYYADSVKGRFTISRDNAKNTVYLQMNSLKPEDTAVYYCAAETIVFYVEYNYWGQGTQVTVSS”, the “polyreactivity (PSR sort gate)” value was “low polyreactivity”.

As to “QVQLVESGGGLVQAGGSLRLSCAASGRTFSWNAMGWYRQAPGKERELVAAISNSGGSTYYADSVKGRFTISRDNAKNTVYLQMNSLKPEDTAVYYCAVYRYYGFSLWYDYWGQGTQVTVSS”, the “polyreactivity (PSR sort gate)” value is given as “low polyreactivity”.
